Assay results reported in the Human Domainome abundance scans (Beltran et al. 2025).
± gives the uncertainty stated by the source.

B1: Death-inducer obliterator 1, residues 263 to 321; numbered along this chain, Q9BTC0 (parent)
chain: GYDPNALYCICRQPHNNRFMICCDRCEEWFHGDCVGISEARGRLLERNGEDYICPNCTI

Variants of: B1
Experiment: abundance fitness (aPCA) (normalised: wild type 0, dead -1); higher = more abundant; growth selection in yeast, the domain comes from the species named
Conditions: Homo sapiens

| Variant | abundance fitness |
| --- | --- |
| GYDPNALYCICRQPHNNRFMICCDRCEEWFHGDCVGISSARGRLLERNGEDYICPNCTI [E39S] | -0.061 ± 0.066 |
| GYDPNALYCICRQPHNNRFMICCDRCEEWFHGDCVGISTARGRLLERNGEDYICPNCTI [E39T] | -0.213 ± 0.08 |
| GYDPNALYCICRQPHNNRFMICCDRCEEWFHGDCVGISVARGRLLERNGEDYICPNCTI [E39V] | -0.036 ± 0.061 |
| GYDPNALYCICRQPHNNRFMICCDRCEEWFHGDCVGISWARGRLLERNGEDYICPNCTI [E39W] | -0.143 ± 0.1 |
| GYDPNALYCICRQPHNNRFMICCDRCEEWFHGDCVGISYARGRLLERNGEDYICPNCTI [E39Y] | -0.22 ± 0.098 |
| GYDPNALYCICRQPHNNRFMICCDRCEEWFHGDCVGISECRGRLLERNGEDYICPNCTI [A40C] | 0.151 ± 0.1 |
| GYDPNALYCICRQPHNNRFMICCDRCEEWFHGDCVGISEDRGRLLERNGEDYICPNCTI [A40D] | -0.019 ± 0.071 |
| GYDPNALYCICRQPHNNRFMICCDRCEEWFHGDCVGISEFRGRLLERNGEDYICPNCTI [A40F] | -0.262 ± 0.086 |
| GYDPNALYCICRQPHNNRFMICCDRCEEWFHGDCVGISEGRGRLLERNGEDYICPNCTI [A40G] | -0.11 ± 0.068 |
| GYDPNALYCICRQPHNNRFMICCDRCEEWFHGDCVGISEHRGRLLERNGEDYICPNCTI [A40H] | -0.182 ± 0.25 |
| GYDPNALYCICRQPHNNRFMICCDRCEEWFHGDCVGISELRGRLLERNGEDYICPNCTI [A40L] | 0.043 ± 0.05 |
| GYDPNALYCICRQPHNNRFMICCDRCEEWFHGDCVGISEMRGRLLERNGEDYICPNCTI [A40M] | 0.004 ± 0.082 |
| GYDPNALYCICRQPHNNRFMICCDRCEEWFHGDCVGISENRGRLLERNGEDYICPNCTI [A40N] | -0.434 ± 0.28 |
| GYDPNALYCICRQPHNNRFMICCDRCEEWFHGDCVGISEPRGRLLERNGEDYICPNCTI [A40P] | -0.143 ± 0.11 |
| GYDPNALYCICRQPHNNRFMICCDRCEEWFHGDCVGISEQRGRLLERNGEDYICPNCTI [A40Q] | -0.315 ± 0.14 |
| GYDPNALYCICRQPHNNRFMICCDRCEEWFHGDCVGISERRGRLLERNGEDYICPNCTI [A40R] | -0.205 ± 0.093 |
| GYDPNALYCICRQPHNNRFMICCDRCEEWFHGDCVGISESRGRLLERNGEDYICPNCTI [A40S] | -0.022 ± 0.084 |
| GYDPNALYCICRQPHNNRFMICCDRCEEWFHGDCVGISETRGRLLERNGEDYICPNCTI [A40T] | -0.077 ± 0.085 |
| GYDPNALYCICRQPHNNRFMICCDRCEEWFHGDCVGISEVRGRLLERNGEDYICPNCTI [A40V] | -0.146 ± 0.06 |
| GYDPNALYCICRQPHNNRFMICCDRCEEWFHGDCVGISEWRGRLLERNGEDYICPNCTI [A40W] | -0.193 ± 0.07 |
| GYDPNALYCICRQPHNNRFMICCDRCEEWFHGDCVGISEYRGRLLERNGEDYICPNCTI [A40Y] | -0.094 ± 0.12 |
| GYDPNALYCICRQPHNNRFMICCDRCEEWFHGDCVGISEAAGRLLERNGEDYICPNCTI [R41A] | 0.075 ± 0.082 |
| GYDPNALYCICRQPHNNRFMICCDRCEEWFHGDCVGISEACGRLLERNGEDYICPNCTI [R41C] | 0.062 ± 0.08 |

| Variant | abundance fitness |
| --- | --- |
| GYDPNALYCICRQPHNNRFMICCDRCEEWFHGDCVGISEADGRLLERNGEDYICPNCTI [R41D] | 0.347 ± 0.2 |
| GYDPNALYCICRQPHNNRFMICCDRCEEWFHGDCVGISEAEGRLLERNGEDYICPNCTI [R41E] | 0.085 ± 0.11 |
| GYDPNALYCICRQPHNNRFMICCDRCEEWFHGDCVGISEAFGRLLERNGEDYICPNCTI [R41F] | -0.133 ± 0.15 |
| GYDPNALYCICRQPHNNRFMICCDRCEEWFHGDCVGISEAGGRLLERNGEDYICPNCTI [R41G] | 0.037 ± 0.058 |
| GYDPNALYCICRQPHNNRFMICCDRCEEWFHGDCVGISEAIGRLLERNGEDYICPNCTI [R41I] | -0.157 ± 0.13 |
| GYDPNALYCICRQPHNNRFMICCDRCEEWFHGDCVGISEAKGRLLERNGEDYICPNCTI [R41K] | -0.008 ± 0.1 |
| GYDPNALYCICRQPHNNRFMICCDRCEEWFHGDCVGISEALGRLLERNGEDYICPNCTI [R41L] | -0.078 ± 0.071 |
| GYDPNALYCICRQPHNNRFMICCDRCEEWFHGDCVGISEAMGRLLERNGEDYICPNCTI [R41M] | -0.05 ± 0.088 |
| GYDPNALYCICRQPHNNRFMICCDRCEEWFHGDCVGISEANGRLLERNGEDYICPNCTI [R41N] | 0.24 ± 0.12 |
| GYDPNALYCICRQPHNNRFMICCDRCEEWFHGDCVGISEAPGRLLERNGEDYICPNCTI [R41P] | 0.135 ± 0.093 |
| GYDPNALYCICRQPHNNRFMICCDRCEEWFHGDCVGISEAQGRLLERNGEDYICPNCTI [R41Q] | -0.193 ± 0.24 |
| GYDPNALYCICRQPHNNRFMICCDRCEEWFHGDCVGISEASGRLLERNGEDYICPNCTI [R41S] | 0.041 ± 0.085 |
| GYDPNALYCICRQPHNNRFMICCDRCEEWFHGDCVGISEATGRLLERNGEDYICPNCTI [R41T] | -0.099 ± 0.094 |
| GYDPNALYCICRQPHNNRFMICCDRCEEWFHGDCVGISEAVGRLLERNGEDYICPNCTI [R41V] | 0.075 ± 0.068 |
| GYDPNALYCICRQPHNNRFMICCDRCEEWFHGDCVGISEAWGRLLERNGEDYICPNCTI [R41W] | -0.443 ± 0.16 |
| GYDPNALYCICRQPHNNRFMICCDRCEEWFHGDCVGISEAYGRLLERNGEDYICPNCTI [R41Y] | -0.065 ± 0.17 |
| GYDPNALYCICRQPHNNRFMICCDRCEEWFHGDCVGISEARCRLLERNGEDYICPNCTI [G42C] | 0.065 ± 0.18 |
| GYDPNALYCICRQPHNNRFMICCDRCEEWFHGDCVGISEARDRLLERNGEDYICPNCTI [G42D] | -0.044 ± 0.12 |
| GYDPNALYCICRQPHNNRFMICCDRCEEWFHGDCVGISEARERLLERNGEDYICPNCTI [G42E] | 0.25 ± 0.14 |
| GYDPNALYCICRQPHNNRFMICCDRCEEWFHGDCVGISEARFRLLERNGEDYICPNCTI [G42F] | -0.029 ± 0.1 |
| GYDPNALYCICRQPHNNRFMICCDRCEEWFHGDCVGISEARHRLLERNGEDYICPNCTI [G42H] | 0.245 ± 0.12 |
| GYDPNALYCICRQPHNNRFMICCDRCEEWFHGDCVGISEARIRLLERNGEDYICPNCTI [G42I] | 0.193 ± 0.21 |
